According to paper PMC6556580 (The Journal of Biological Chemistry, 2019):
“And” between values parts separate entries of the source, which are not always exact repeats. Identical values can stand only once. Like-named read-outs stand apart in the source and are kept apart here.

How the values were obtained:
[1] = biological target: the molecule itself; experiment: SEC-MALS; samples at 0.5–20 mg/ml in 20 mM Tris pH 8.0, 150 mM KCl, 2 mM DTT; Superdex 200 Increase 10/300 GL; concentration series and enriched species; self-association: dimer and higher oligomers of dimers
[2] = biological target: the molecule itself; experiment: dynamic light scattering; 20 °C, samples at 5–20 mg/ml in 20 mM Tris pH 8.0, 150 mM KCl, 2 mM DTT; size distribution by volume
[3] = biological target: the molecule itself; experiment: SEC-MALS; samples at 0.5–20 mg/ml in 20 mM Tris pH 8.0, 150 mM KCl, 2 mM DTT; Superdex 200 Increase 10/300 GL; concentration series and enriched species; self-association: dimer and higher oligomers of dimers; remark: listed apart in the source

Protein	stoichiometry N [1]	stoichiometry N [3]	other results
SYCE3 9–88 Y11N/L15N (domain or fragment, human, UniProt A1L190 9-88, looked up, SYCE3, human, amino acids 9–88 with Y11N and L15N (label of the legend; the text says 'mutation to glutamine'); source: E. coli BL21(DE3), purified (Ni-NTA, amylose, anion exchange, SEC where appropriate); not shown: His6, N-terminal, cleaved; MBP, N-terminal, cleaved) RNNDNMNKMLSDLNKDLEKLLEEMEKISVQATWMAYDMVVMRTNPTLAESMRRLEDAFVNCKEEMEKNWQELLHETKQRL	2	–	–
SYCE3 9–88 (domain or fragment, human, UniProt A1L190 9-88, looked up, SYCE3, human, amino acids 9–88 (unstructured N terminus removed); source: E. coli BL21(DE3), purified (Ni-NTA, amylose, anion exchange, SEC where appropriate); not shown: His6, N-terminal, cleaved; MBP, N-terminal, cleaved) RNYDNMLKMLSDLNKDLEKLLEEMEKISVQATWMAYDMVVMRTNPTLAESMRRLEDAFVNCKEEMEKNWQELLHETKQRL	–	–	binding result [2]: binds
SYCE3 12–88 L15N (domain or fragment, human, UniProt A1L190 12-88, looked up, SYCE3, human, amino acids 12–88 with point mutation L15N; source: E. coli BL21(DE3), purified (Ni-NTA, amylose, anion exchange, SEC where appropriate); not shown: His6, N-terminal, cleaved; MBP, N-terminal, cleaved) DNMNKMLSDLNKDLEKLLEEMEKISVQATWMAYDMVVMRTNPTLAESMRRLEDAFVNCKEEMEKNWQELLHETKQRL	–	2	–
SYCE3 12–88 (domain or fragment, human, UniProt A1L190 12-88, looked up, SYCE3, human, amino acids 12–88 (α1 N-terminal tip removed, structural core kept); source: E. coli BL21(DE3), purified (Ni-NTA, amylose, anion exchange, SEC where appropriate); not shown: His6, N-terminal, cleaved; MBP, N-terminal, cleaved) DNMLKMLSDLNKDLEKLLEEMEKISVQATWMAYDMVVMRTNPTLAESMRRLEDAFVNCKEEMEKNWQELLHETKQRL	2	–	–
SYCE3 1–88 W41A/Y44A (natural protein, human, UniProt A1L190 1-88, looked up, SYCE3, human, amino acids 1–88 with W41A and Y44A; also called SYCE3 W41A/Y44A; source: E. coli BL21(DE3), purified (Ni-NTA, amylose, anion exchange, SEC where appropriate); not shown: His6, N-terminal, cleaved; MBP, N-terminal, cleaved) MDDADPEERNYDNMLKMLSDLNKDLEKLLEEMEKISVQATAMAADMVVMRTNPTLAESMRRLEDAFVNCKEEMEKNWQELLHETKQRL	–	2 and 4	–
Human SYCE3 full-length (amino acids 1–88) (natural protein, UniProt A1L190 1-88, looked up, SYCE3, human, full length, amino acids 1–88 (protein of 88 amino acids); it assembles further with concentration; Tags removed with TEV protease; also called SYCE3 1–88; WT SYCE3; source: E. coli BL21(DE3), purified (Ni-NTA, amylose, anion exchange, SEC where appropriate); not shown: His6, N-terminal, cleaved; MBP, N-terminal, cleaved) MDDADPEERNYDNMLKMLSDLNKDLEKLLEEMEKISVQATWMAYDMVVMRTNPTLAESMRRLEDAFVNCKEEMEKNWQELLHETKQRL	24	–	–
SYCE3 1–88 PPP-loop (natural protein, human, UniProt A1L190 1-88, looked up, also called SYCE3 PPP-loop; source: E. coli BL21(DE3), purified (Ni-NTA, amylose, anion exchange, SEC where appropriate); not shown: His6, N-terminal, cleaved; MBP, N-terminal, cleaved) MDDADPEERNYDNMLKMLSDLNKDLEKLLEEMEKISVQATWMAYDMVVGGPPPTLAESMRRLEDAFVNCKEEMEKNWQELLHETKQRL	–	2	–
MBP-SYCE3 fusion protein (natural protein, human, UniProt A1L190 1-88, looked up, SYCE3, human; source: E. coli BL21(DE3), purified; not shown: MBP, N-terminal, kept) MDDADPEERNYDNMLKMLSDLNKDLEKLLEEMEKISVQATWMAYDMVVMRTNPTLAESMRRLEDAFVNCKEEMEKNWQELLHETKQRL	4 and 6	–	–
SYCE3 1–88 P53Q (natural protein, human, UniProt A1L190 1-88, looked up, SYCE3, human, amino acids 1–88 with P53Q; also called SYCE3 P53Q; source: E. coli BL21(DE3), purified (Ni-NTA, amylose, anion exchange, SEC where appropriate); not shown: His6, N-terminal, cleaved; MBP, N-terminal, cleaved) MDDADPEERNYDNMLKMLSDLNKDLEKLLEEMEKISVQATWMAYDMVVMRTNQTLAESMRRLEDAFVNCKEEMEKNWQELLHETKQRL	–	–	binding result [3]: binds
SYCE3 1–88 W41E/Y44E (natural protein, human, UniProt A1L190 1-88, looked up, SYCE3, human, amino acids 1–88 with W41E and Y44E; also called SYCE3 W41E/Y44E; source: E. coli BL21(DE3), purified (Ni-NTA, amylose, anion exchange, SEC where appropriate); not shown: His6, N-terminal, cleaved; MBP, N-terminal, cleaved) MDDADPEERNYDNMLKMLSDLNKDLEKLLEEMEKISVQATEMAEDMVVMRTNPTLAESMRRLEDAFVNCKEEMEKNWQELLHETKQRL	–	2	–
